To fix the notation:
B1: Compound 9, cyclic peptide A R G D F A L p P (peptide)
peptide: cyclo(ARGDFAL[dP]P)
SMILES: CC(C)C[C@@H]1NC(=O)[C@H](C)NC(=O)[C@H](Cc2ccccc2)NC(=O)[C@H](CC(=O)O)NC(=O)CNC(=O)[C@H](CCCNC(=N)N)NC(=O)[C@H](C)NC(=O)[C@@H]2CCCN2C(=O)[C@H]2CCCN2C1=O
notes: Comparative compound (*)
B2: Compound 13, cyclic peptide A R G D L A L p Sar (peptide)
peptide: cyclo(ARGDLAL[dP][Sar])
SMILES: CC(C)C[C@@H]1NC(=O)[C@H](CC(=O)O)NC(=O)CNC(=O)[C@H](CCCNC(=N)N)NC(=O)[C@H](C)NC(=O)CN(C)C(=O)[C@H]2CCCN2C(=O)[C@H](CC(C)C)NC(=O)[C@H](C)NC1=O
B3: Compound 22, cyclic peptide W R G D L A F p (NMe)K (peptide)
peptide: cyclo(WRGDLAF[dP][NMeK])
SMILES: CC(C)C[C@@H]1NC(=O)[C@H](CC(=O)O)NC(=O)CNC(=O)[C@H](CCCNC(=N)N)NC(=O)[C@H](Cc2c[nH]c3ccccc23)NC(=O)[C@H](CCCCN)N(C)C(=O)[C@H]2CCCN2C(=O)[C@H](Cc2ccccc2)NC(=O)[C@H](C)NC1=O
B4: Compound 17, cyclic peptide A R G D L A F p (NMe)K (peptide)
peptide: cyclo(ARGDLAF[dP][NMeK])
SMILES: CC(C)C[C@@H]1NC(=O)[C@H](CC(=O)O)NC(=O)CNC(=O)[C@H](CCCNC(=N)N)NC(=O)[C@H](C)NC(=O)[C@H](CCCCN)N(C)C(=O)[C@H]2CCCN2C(=O)[C@H](Cc2ccccc2)NC(=O)[C@H](C)NC1=O
B5: Compound 15, cyclic peptide A R G D L A L p (NMe)K (peptide)
peptide: cyclo(ARGDLAL[dP][NMeK])
SMILES: CC(C)C[C@@H]1NC(=O)[C@H](CC(=O)O)NC(=O)CNC(=O)[C@H](CCCNC(=N)N)NC(=O)[C@H](C)NC(=O)[C@H](CCCCN)N(C)C(=O)[C@H]2CCCN2C(=O)[C@H](CC(C)C)NC(=O)[C@H](C)NC1=O
B6: Compound 2, cyclic peptide A R G D A A A L p P (peptide)
peptide: cyclo(ARGDAAAL[dP]P)
SMILES: CC(C)C[C@@H]1NC(=O)[C@H](C)NC(=O)[C@H](C)NC(=O)[C@H](C)NC(=O)[C@H](CC(=O)O)NC(=O)CNC(=O)[C@H](CCCNC(=N)N)NC(=O)[C@H](C)NC(=O)[C@@H]2CCCN2C(=O)[C@H]2CCCN2C1=O
notes: Comparative compound (*)
B7: Compound 3, cyclic peptide A R G D L A A A p P (peptide)
peptide: cyclo(ARGDLAAA[dP]P)
SMILES: CC(C)C[C@@H]1NC(=O)[C@H](CC(=O)O)NC(=O)CNC(=O)[C@H](CCCNC(=N)N)NC(=O)[C@H](C)NC(=O)[C@@H]2CCCN2C(=O)[C@H]2CCCN2C(=O)[C@H](C)NC(=O)[C@H](C)NC(=O)[C@H](C)NC1=O
notes: Comparative compound (*)
B8: Compound 5, cyclic peptide A R G D L L p P (peptide)
peptide: cyclo(ARGDLL[dP]P)
SMILES: CC(C)C[C@@H]1NC(=O)[C@H](CC(=O)O)NC(=O)CNC(=O)[C@H](CCCNC(=N)N)NC(=O)[C@H](C)NC(=O)[C@@H]2CCCN2C(=O)[C@H]2CCCN2C(=O)[C@H](CC(C)C)NC1=O
notes: Comparative compound (*)
B9: Compound 6, cyclic peptide A R G D L p P (peptide)
peptide: cyclo(ARGDL[dP]P)
SMILES: CC(C)C[C@@H]1NC(=O)[C@H](CC(=O)O)NC(=O)CNC(=O)[C@H](CCCNC(=N)N)NC(=O)[C@H](C)NC(=O)[C@@H]2CCCN2C(=O)[C@H]2CCCN2C1=O
notes: Comparative compound (*)
B10: Compound 7, cyclic peptide A R G D L d L p P (peptide)
peptide: cyclo(ARGDL[dD]L[dP]P)
SMILES: CC(C)C[C@@H]1NC(=O)[C@H](CC(=O)O)NC(=O)CNC(=O)[C@H](CCCNC(=N)N)NC(=O)[C@H](C)NC(=O)[C@@H]2CCCN2C(=O)[C@H]2CCCN2C(=O)[C@H](CC(C)C)NC(=O)[C@@H](CC(=O)O)NC1=O
notes: Comparative compound (*)

Consider ten molecules from patent US10562936B2, “Ligands for integrin αvβ6, synthesis and uses thereof” (Technische Universitat Munchen, priority 2015, dated 2020).

Square brackets hold non-standard residues; d marks the D form. NMeK = CN[C@@H](CCCCN)C(=O)O; Sar = CNCC(=O)O

For the first experiment, the target named is T1, integrin αvβ3 (soluble integrin) (UniProt P06756 31-992; P05106 27-718).
T1 construct: Only 'soluble integrins' is said
T1 sequence (P06756 31-992, chain 1 of 2): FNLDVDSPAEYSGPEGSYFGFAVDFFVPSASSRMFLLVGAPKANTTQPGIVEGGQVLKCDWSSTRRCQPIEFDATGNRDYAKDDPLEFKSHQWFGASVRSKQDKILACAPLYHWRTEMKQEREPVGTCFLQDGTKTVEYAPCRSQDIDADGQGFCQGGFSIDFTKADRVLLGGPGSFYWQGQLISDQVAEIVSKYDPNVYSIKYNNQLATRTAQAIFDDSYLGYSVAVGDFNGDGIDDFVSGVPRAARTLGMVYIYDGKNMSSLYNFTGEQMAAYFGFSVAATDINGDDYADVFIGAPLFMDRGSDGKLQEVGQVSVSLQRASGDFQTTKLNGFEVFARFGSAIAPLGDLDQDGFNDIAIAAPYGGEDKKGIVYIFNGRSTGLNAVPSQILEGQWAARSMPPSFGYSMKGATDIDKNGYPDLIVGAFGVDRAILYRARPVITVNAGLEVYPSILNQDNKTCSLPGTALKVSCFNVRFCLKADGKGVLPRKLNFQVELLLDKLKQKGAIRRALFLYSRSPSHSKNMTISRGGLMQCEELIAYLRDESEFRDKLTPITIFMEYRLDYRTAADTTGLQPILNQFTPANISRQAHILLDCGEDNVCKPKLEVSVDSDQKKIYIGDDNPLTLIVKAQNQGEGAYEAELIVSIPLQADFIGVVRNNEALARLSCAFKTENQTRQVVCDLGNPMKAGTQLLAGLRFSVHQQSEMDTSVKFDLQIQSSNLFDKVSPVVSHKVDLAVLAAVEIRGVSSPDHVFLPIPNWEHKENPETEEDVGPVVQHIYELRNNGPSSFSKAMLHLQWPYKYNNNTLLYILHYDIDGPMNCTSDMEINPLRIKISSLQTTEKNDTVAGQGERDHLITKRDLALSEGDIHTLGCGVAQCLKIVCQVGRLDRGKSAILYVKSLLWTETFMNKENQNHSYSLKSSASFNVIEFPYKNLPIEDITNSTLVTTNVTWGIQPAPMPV
T1 sequence (P05106 27-718, chain 2 of 2): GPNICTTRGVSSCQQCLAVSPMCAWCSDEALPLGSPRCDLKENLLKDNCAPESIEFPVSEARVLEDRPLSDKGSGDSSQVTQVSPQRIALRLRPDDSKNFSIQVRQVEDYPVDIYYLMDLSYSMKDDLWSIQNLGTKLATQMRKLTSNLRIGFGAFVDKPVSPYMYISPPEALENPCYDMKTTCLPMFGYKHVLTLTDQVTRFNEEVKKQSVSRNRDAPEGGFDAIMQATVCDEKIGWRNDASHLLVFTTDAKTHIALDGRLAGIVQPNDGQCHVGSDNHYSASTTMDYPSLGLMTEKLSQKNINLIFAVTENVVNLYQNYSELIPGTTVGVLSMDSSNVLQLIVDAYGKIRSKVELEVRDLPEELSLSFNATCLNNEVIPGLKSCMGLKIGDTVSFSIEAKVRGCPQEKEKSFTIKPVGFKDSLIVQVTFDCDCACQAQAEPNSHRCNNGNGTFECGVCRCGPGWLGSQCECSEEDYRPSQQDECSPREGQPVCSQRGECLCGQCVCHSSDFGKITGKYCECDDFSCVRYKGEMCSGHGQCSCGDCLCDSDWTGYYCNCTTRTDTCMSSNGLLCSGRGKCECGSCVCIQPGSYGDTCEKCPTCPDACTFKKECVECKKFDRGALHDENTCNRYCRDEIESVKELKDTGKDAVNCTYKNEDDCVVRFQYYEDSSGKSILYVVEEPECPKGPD
Nature of the experiment: solid-phase binding assay, competition; coated vitronectin, soluble αvβ3.
As to B1, the IC50 came to 65.2 nM.

B2 gave a half-maximal inhibitory concentration (IC50) of 87.7 nM.

Molecule B3 had a half-maximal inhibitory concentration (IC50) of 645 nM.

In turn, B4 registered an IC50 of 143 nM.

In the case of B5, the IC50 turned out to be 415 nM.

The target in another experiment is T2, integrin αvβ6 (soluble integrin) (UniProt P06756 31-992; P18564 22-707).
T2 construct: Only 'soluble integrins' is said
T2 sequence (P06756 31-992, chain 1 of 2): as the sequence (P06756 31-992, chain 1 of 2) above
T2 sequence (P18564 22-707, chain 2 of 2): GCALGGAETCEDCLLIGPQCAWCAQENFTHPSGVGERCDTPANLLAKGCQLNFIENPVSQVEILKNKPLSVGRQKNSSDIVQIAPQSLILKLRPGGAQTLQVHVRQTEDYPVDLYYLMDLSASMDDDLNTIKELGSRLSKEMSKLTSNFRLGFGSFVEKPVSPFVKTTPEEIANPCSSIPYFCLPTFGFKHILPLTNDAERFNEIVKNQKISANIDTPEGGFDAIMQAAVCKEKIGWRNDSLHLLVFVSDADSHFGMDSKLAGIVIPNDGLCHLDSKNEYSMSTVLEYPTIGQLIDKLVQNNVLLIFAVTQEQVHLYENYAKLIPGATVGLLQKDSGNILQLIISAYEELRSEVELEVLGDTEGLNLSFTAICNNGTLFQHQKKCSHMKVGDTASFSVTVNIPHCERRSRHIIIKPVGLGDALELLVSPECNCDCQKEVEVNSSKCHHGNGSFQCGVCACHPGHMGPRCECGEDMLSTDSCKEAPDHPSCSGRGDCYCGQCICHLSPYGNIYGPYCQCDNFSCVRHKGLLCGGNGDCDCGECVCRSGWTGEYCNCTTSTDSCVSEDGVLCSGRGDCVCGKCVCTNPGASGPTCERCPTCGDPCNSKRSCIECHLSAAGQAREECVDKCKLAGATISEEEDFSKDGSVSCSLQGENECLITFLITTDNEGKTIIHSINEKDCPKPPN
Description: solid-phase binding assay, competition; coated LAP, soluble αvβ6.
Regarding B6, the IC50 worked out at 320 nM.

The molecule B7 showed an IC50 of 15.4 nM.

On to B1, for which the 50% inhibitory concentration (IC50) was found to be 63.4 nM.

Take B8: the IC50 came to 292 nM.

As to B9, the IC50 stood at 417 nM.

Consider B2, for which the IC50 was 8.1 nM.

As for B4, the IC50 was 0.7 nM.

In turn, B5 displayed an IC50 of 4.3 nM.

In the case of B10, the IC50 came out at 148 nM.

In general, IC50 refers to the concentration at which inhibition is half-maximal. A higher IC50 goes with a need for much substance.
